Reference: article PMC4479559

How the values were obtained:
[1] = target: Clostridium oremlandii methionine sulfoxide reductase A, Sec-to-Cys form (Clostridium oremlandii (strain OhILAs)); assay: non-reducing SDS-PAGE; time course, 84 μM MsrA with 0.2 mM free methionine sulfoxide; dimer ratios by ImageJ, fitted with Prism 5
[2] = target: Clostridium oremlandii methionine sulfoxide reductase A, Sec-to-Cys form (Clostridium oremlandii (strain OhILAs)); assay: non-reducing SDS-PAGE; series of MsrA concentrations, 2 h with 0.2 mM free methionine sulfoxide; dimer ratios by ImageJ, fitted with Prism 5

Clostridium oremlandii methionine sulfoxide reductase A, Sec-to-Cys form (enzyme)
D1/2 (reaction time to reach half Dmax) [1]: 5.8 min | D1/2 (concentration of MsrA to reach half Dmax) [2]: 7.6 µM | Dmax (maximal percent of dimer) [2]: 98%
